Publication PMC11128299 (Biophysics and Physicobiology, 2023)
Where two headings read alike, the source gives them in different places.

B1: KaiC-CV (KaiC with S431C and T432V substitutions) (enzyme)
chain: MTSAEMTSPNNNSEHQAIAKMRTMIEGFDDISHGGLPIGRSTLVSGTSGTGKTLFSIQFLYNGIIEFDEPGVFVTFEETPQDIIKNARSFGWDLAKLVDEGKLFILDASPDPEGQEVVGGFDLSALIERINYAIQKYRARRVSIDSVTSVFQQYDASSVVRRELFRLVARLKQIGATTVMTTERIEEYGPIARYGVEEFVSDNVVILRNVLEGERRRRTLEILKLRGTSHMKGEYPFTITDHGINIFPLGAMRLTQRSSNVRVSSGVVRLDEMCGGGFFKDSIILATGATGTGKTLLVSRFVENACANKERAILFAYEESRAQLLRNAYSWGMDFEEMERQNLLKIVCAYPESAGLEDHLQIIKSEINDFKPARIAIDSLSALARGVSNNAFRQFVIGVTGYAKQEEITGLFTNTSDQFMGAHSITDSHICVITDTIILLQYVEIRGEMSRAINVFKMRGSWHDKAIREFMISDKGPDIKDSFRNFERIISGSPTRITVDEKSELSRIVRGVQEKGPES
B2: KaiC-TV (KaiC with threonine at position 431 and valine at position 432) (enzyme)
chain: MTSAEMTSPNNNSEHQAIAKMRTMIEGFDDISHGGLPIGRSTLVSGTSGTGKTLFSIQFLYNGIIEFDEPGVFVTFEETPQDIIKNARSFGWDLAKLVDEGKLFILDASPDPEGQEVVGGFDLSALIERINYAIQKYRARRVSIDSVTSVFQQYDASSVVRRELFRLVARLKQIGATTVMTTERIEEYGPIARYGVEEFVSDNVVILRNVLEGERRRRTLEILKLRGTSHMKGEYPFTITDHGINIFPLGAMRLTQRSSNVRVSSGVVRLDEMCGGGFFKDSIILATGATGTGKTLLVSRFVENACANKERAILFAYEESRAQLLRNAYSWGMDFEEMERQNLLKIVCAYPESAGLEDHLQIIKSEINDFKPARIAIDSLSALARGVSNNAFRQFVIGVTGYAKQEEITGLFTNTSDQFMGAHSITDSHITVITDTIILLQYVEIRGEMSRAINVFKMRGSWHDKAIREFMISDKGPDIKDSFRNFERIISGSPTRITVDEKSELSRIVRGVQEKGPES

Tests used:
crystal structure [1] = molecular target: the molecule itself; assay: crystal structure
crystal structure [2] = molecular target: the molecule itself; assay: crystal structure; remark: listed apart in the source

Protein	stoichiometry N (crystal structure [1])	stoichiometry N (crystal structure [2])
B1	6	
B2		6
